Results from patent US20250313627A1 (FUSE BIOTHERAPEUTICS, published 2025).

Experiments:
human CD3 on T cells = target: T1, human CD3 on T cells (human, UniProt P07766 23-207; P09693 23-182; P04234 22-171; P20963 22-164); test: flow cytometry on CD3+ Jurkat NFAT Lucia cells, secondary antibody to the IgG1 Fc
T1 construct: whole, on cells; also called human CD3 on Jurkat T cells; human CD3 on T cells isolated from human PBMC

[1] = target: T2, human ROR1 (Receptor Tyrosine Kinase-Like Orphan Receptor 1) on the cell surface (human, UniProt Q01973 30-937); test: flow cytometry on ROR1+ MDA-MB-231 cells, secondary antibody to the IgG1 Fc; table row 'Binding EC50 (nM)', the graph's axis reads 'Concentration (pM)'
T2 construct: whole, on cells; engineered into B16-F10 (high density) and LS174T (low density) cells; also called B16-F10-ROR1-H; LS174T-ROR1-L
T2 sequence (Q01973 30-937): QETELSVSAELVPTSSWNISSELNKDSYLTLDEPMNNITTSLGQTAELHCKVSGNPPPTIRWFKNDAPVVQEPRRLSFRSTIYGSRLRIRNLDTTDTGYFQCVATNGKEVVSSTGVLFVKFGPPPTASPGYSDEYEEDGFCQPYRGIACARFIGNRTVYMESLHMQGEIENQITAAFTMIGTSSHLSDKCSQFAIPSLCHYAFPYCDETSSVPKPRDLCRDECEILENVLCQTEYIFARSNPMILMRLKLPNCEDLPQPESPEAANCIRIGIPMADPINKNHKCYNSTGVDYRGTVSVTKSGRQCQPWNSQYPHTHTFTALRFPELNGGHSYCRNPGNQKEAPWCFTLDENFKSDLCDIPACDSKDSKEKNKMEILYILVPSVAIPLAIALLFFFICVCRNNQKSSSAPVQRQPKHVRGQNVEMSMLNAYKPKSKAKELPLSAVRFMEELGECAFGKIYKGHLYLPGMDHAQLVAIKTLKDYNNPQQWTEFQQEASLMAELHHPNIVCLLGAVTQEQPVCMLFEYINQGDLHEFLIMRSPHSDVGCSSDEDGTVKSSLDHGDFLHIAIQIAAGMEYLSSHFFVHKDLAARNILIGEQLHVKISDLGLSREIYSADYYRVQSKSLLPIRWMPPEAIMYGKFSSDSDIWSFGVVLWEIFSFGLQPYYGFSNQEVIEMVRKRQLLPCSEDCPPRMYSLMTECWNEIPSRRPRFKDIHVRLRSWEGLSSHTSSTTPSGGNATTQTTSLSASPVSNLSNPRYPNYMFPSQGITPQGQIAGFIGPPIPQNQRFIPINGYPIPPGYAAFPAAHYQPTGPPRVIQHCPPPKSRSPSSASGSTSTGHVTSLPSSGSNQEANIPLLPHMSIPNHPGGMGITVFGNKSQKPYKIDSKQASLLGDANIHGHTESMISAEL

[2] = target: T2, human ROR1 (Receptor Tyrosine …); test: cell-based or functional assay

T1 sequence (P07766 23-207, chain 1 of 4): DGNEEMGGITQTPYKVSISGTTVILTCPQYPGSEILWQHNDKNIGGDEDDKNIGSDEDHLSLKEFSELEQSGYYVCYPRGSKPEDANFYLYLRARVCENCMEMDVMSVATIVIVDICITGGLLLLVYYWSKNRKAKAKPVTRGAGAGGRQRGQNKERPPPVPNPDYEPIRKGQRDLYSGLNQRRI
T1 sequence (P09693 23-182, chain 2 of 4): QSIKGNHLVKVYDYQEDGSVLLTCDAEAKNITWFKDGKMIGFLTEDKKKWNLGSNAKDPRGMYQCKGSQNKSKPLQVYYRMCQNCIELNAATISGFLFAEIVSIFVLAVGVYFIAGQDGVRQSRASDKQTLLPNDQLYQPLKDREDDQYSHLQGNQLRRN
T1 sequence (P04234 22-171, chain 3 of 4): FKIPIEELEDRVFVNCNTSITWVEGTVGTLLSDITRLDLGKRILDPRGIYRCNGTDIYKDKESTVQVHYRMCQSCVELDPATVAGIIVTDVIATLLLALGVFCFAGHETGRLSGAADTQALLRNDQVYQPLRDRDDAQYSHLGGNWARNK
T1 sequence (P20963 22-164, chain 4 of 4): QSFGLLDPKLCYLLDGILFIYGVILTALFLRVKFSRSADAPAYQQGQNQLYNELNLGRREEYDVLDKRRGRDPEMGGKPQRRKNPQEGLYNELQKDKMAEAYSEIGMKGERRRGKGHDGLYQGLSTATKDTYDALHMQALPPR

B1: FUSE608 (humanized CD3 clone 1F3.3 x humanized clone 5A1-FA9-HK1) (bispecific antibody)
heavy: EVQLVESGGGLVQPGGSLRLSCAASGFTFSTYAMNWVRQAPGKGLEWVARIRSKYNNYATYYADSVKDRFTISRDDSKNTLYLQMNSLRAEDTAVYYCARHGNFGNSYVSWFAYWGQGTMVTVSSASTKGPSVFPLAPSSKSTSGGTAALGCLVKDYFPEPVTVSWNSGALTSGVHTFPAVLQSSGLYSLSSVVTVPSSSLGTQTYICNVNHKPSNTKVDKKVEPKSCDKTHTCPPCPAPEAAGGPSVFLFPPKPKDTLMISRTPEVTCVVVDVSHEDPEVKFNWYVDGVEVHNAKTKPREEQYNSTYRVVSVLTVLHQDWLNGKEYKCKVSNKALPAPIEKTISKAKGQPREPQVYTLPPSREEMTKNQVSLSCAVKGFYPSDIAVEWESNGQPENNYKTTPPVLDSDGSFFLVSKLTVDKSRWQQGNVFSCSVMHEALHNRFTQKSLSLSPGK
VHH-Fc: EVQLLESGGGLVQPGGSLRLSCTASGYTNRLKCMGWFRQAPGKEREEIASISTGTGNTYYADSVKGRFTISRDKSRNTLYLQMNTLRAEDTAVYYCAADVRPHGTTCHYNSRGQGTQVTVSSEPKSSDKTHTCPPCPAPEAAGGPSVFLFPPKPKDTLMISRTPEVTCVVVDVSHEDPEVKFNWYVDGVEVHNAKTKPREEQYNSTYRVVSVLTVLHQDWLNGKEYKCKVSNKALPAPIEKTISKAKGQPREPQVYTLPPSREEMTKNQVSLWCLVKGFYPSDIAVEWESNGQPENNYKTTPPVLDSDGSFFLYSKLTVDKSRWQQGNVFSCSVMHEALHNHYTQKSLSLSPGK
light: QAVVTQEPSLTVSPGGTVTLTCRSSTGAVTTSNYANWVQQKPGQAPRGLIGGTNKRAPGTPARFSGSLLGGKAALTLSGVQPEDEAEYYCALWYSNLWVFGGGTKLTVLGQPKAAPSVTLFPPSSEELQANKATLVCLISDFYPGAVTVAWKADSSPVKAGVETTTPSKQSNNKYAASSYLSLTPEQWKSHRSYSCQVTHEGSTVEKTVAPTECSGGGGSGGGGSGGGGSGGGGSEVQLLESGGGLVQPGGSLRLSCTASGYTNRLKCMGWFRQAPGKEREEIASISTGTGNTYYADSVKGRFTISRDKSRNTLYLQMNTLRAEDTAVYYCAADVRPHGTTCHYNSRGQGTQVTVSS
With B1 the EC50 (human CD3 on T cells) was 8.18 nM, the EC50 [1] was 2.9 nM and the “fold decrease in T cell mediated IFNγ release with ROR1+ MDA-MB-231, potency against FUSE399” value [2] was ~25 fold.
